Test results taken from PMC3718800, “Structural and Functional Perturbation of Giardia lamblia Triosephosphate Isomerase by Modification of a Non-Catalytic, Non-Conserved Region” (PLoS ONE, 2013).

Substrate: O=C[C@H](O)COP(=O)(O)O
Experiment: Coupled alpha-glycerol-3-phosphate dehydrogenase assay following NADH decrease at 340 nm at 25°C in 100 mM triethanolamine/10 mM EDTA, pH 7.4, with 0.2 mM NADH and GAP varied from 0.3 to 3 mM, fitted to the Michaelis-Menten equation by non-linear regression.
Format: biochemical
Protocol: Glyceraldehyde 3-phosphate (GAP), buffers, salts and all the other analytical grade reagents were acquired from Sigma–Aldrich; α-glycerol-3-phosphate dehydrogenase (α-GDH) was from Roche, crystallization screen kits were obtained from Hampton Research. Restriction enzymes, DNA polymerase and T4 DNA ligase were purchased from New England BioLabs and Invitrogene. Oligonucleotide synthesis and DNA sequencing was performed at the Unidad de Biología Molecular, Instituto de Fisiología Celular, UNAM. Protein concentration was determined by the bicinchoninic acid method or by absorbance at 280 nm for pure GlTIM (ε280 = 26600 M^-1cm^-1). The TIM activity was determined at 25°C by a coupled assay, following the decrease in absorbance at 340 nm. The standard reaction mixture contained 100 mM triethanolamine/10 mM EDTA, pH 7.4 (TE buffer), 1 mM GAP, 0.2 mM NADH, and 0.9 units of α-GDH (20 μg/mL); the reaction was initiated by addition of 5 ng/mL of WT, C222V or C222M GlTIM, 10 ng/mL of C222N, 20 ng/mL of C222D or C222F, and 200 ng/mL of C222K. Kinetic, binding and stability data were analyzed by non-linear regression calculations with Origin software.
Determination of Km and Vmax was performed by fitting initial velocity data at GAP concentrations ranging from 0.3 to 3 mM to the Michaelis-Menten equation (v = Vmax•S/Km+S) by non-linear regression calculations. The kcat was derived from Vmax by considering a molecular mass for the monomer of 27.7 kDa. The Ki for 2-phosphoglycolate (2-PG) was calculated by global fit of initial velocity curves (GAP from 0.3 to 3 mM) obtained at different fixed concentrations of the inhibitor. Prior to fitting collectively the data to the simple competitive inhibition equation (v = Vmax•S/Km(1+I/Ki)+S), individual data were plotted as double reciprocal plots to confirm competitive inhibition.

B1: GlTIM (Giardia duodenalis) (protein)
chain: MPARRPFIGGNFKCNGSLDFIKSHVAAIAAHKIPDSVDVVIAPSAVHLSTAIAANTSKQLRIAAQNVYLEGNGAWTGETSVEMLQDMGLKHVIVGHSERRRIMGETDEQSAKKAKRALEKGMTVIFCVGETLDERKANRTMEVNIAQLEALGKELGESKMLWKEVVIAYEPVWSIGTGVVATPEQAEEVHVGLRKWFAEKVCAEGAQHIRIIYGGSANGSNCEKLGQCPNIDGFLVGGASLKPEFMTMIDILTKTRT
Km: 620 ± 220 µM | Vmax: 8050 µmol/min/mg | kcat: 7330 s⁻¹
